For one assay, the target named is T1, CD28 (Mus musculus, UniProt P31041).
T1 construct: PKCθ^−/− primary CD4^+ T cells were infected with a retrovirus expressing a Myc-tagged V3 alone; endogenous in cells; host or cells: primary CD4+ T cells of PKCθ-/- mice, retrovirally transduced only with Myc-tagged V3
Nature of the assay: Co-immunoprecipitation of Myc-tagged V3 with CD28 in PKCθ−/− primary CD4+ T cells. The assay is classed as binding. The note with it: Myc-tagged V3 alone, retrovirus, CD3+CD28 mAbs 5 min. The method, then: (FIG. 2A) Schematic representation of PKCθ mutants. (FIG. 2B) Jurkat E6.1 cells transfected with the indicated PKCθ or PKCδ vectors were stimulated with anti-CD3/CD28 mAbs for 5 min. (FIG. 2C-2E) PKC CD4^+ T cells were infected with retrovirus expressing empty pMIG vector, WT PKCθ, or PKCθ−ΔV3 (FIG. 2C); WT PKCθ, PKCθ/δV3, or WT PKCδ (FIG. 2D); empty pMIG-vector or Myc-tagged V3 of PKCθ (FIG. 2E). Cells were harvested and restimulated with CD3+CD28 mAbs for 5 min. Cell lysates were prepared, immunoprecipitated with anti-CD28 mAb, resolved by SDS-PAGE, and immunoblotted with the indicated Abs. (FIG. 2F) Jurkat T cells cotransfected with Myc-tagged PKCθ−V3 plus CFP-tagged CD28 were mixed with SEE-pulsed Raji B cells at a 1:1 ratio. Conjugates were fixed and stained with a rabbit anti-Myc Ab plus a secondary Alexa 488-coupled antibody. Data shown is from four studies.
Retrovirally transduced CD4^+ T cells were stimulated with anti-CD3 and anti-CD28 mAbs for 5 min. Cell lysis in 1% digitonin lysis buffer, immunoprecipitation and Western blotting were carried out as described (Yokosuka, T. et al. Immunity 29, 589-601 (2008)).
To determine whether the V3 domain is sufficient for this interaction, PKCθ^−/− primary CD4^+ T cells were infected with a retrovirus expressing a Myc-tagged V3 alone. […]

Assay [1] relates to B6 CD4+ T cells, Th17 differentiation. Nature of the assay: In vitro Th17 differentiation of retrovirally transduced CD4+ T cells. The assay is classed as cell-based, mouse. To be noted: ectopic expression, Th17 differentiation conditions. As to the method:
(§1) (FIG. 6A) OT-II CD4^+ T cells were infected with retrovirus expressing Myc-tagged V3 domain, V3 mutated at P330/1/4/6A (V3-4PA), or PR motif-deleted V3 (V3-ΔPR). Infected cells (green) were harvested, stimulated, and fixed. Conjugates were stained with anti-Myc plus a secondary Alexa 555-coupled antibody (orange), and anti-PKCθ plus a secondary Alexa 647-coupled antibody (red). Cells were analyzed as in FIG. 1A. (FIG. 6B) Quantitative analysis of the results shown in (FIG. 6A) from 30-50 T-APC conjugates. ** p<0.05. (FIG. 6C) MCC-specific T hybridoma cells were cotransfected with indicated vector, together with RE/AP-Luc and β-Gal reporter plasmids. Cells were stimulated and analyzed as in FIG. 1C. […] Cytokine-producing cells were analyzed by intracellular staining 8 h after restimulation. […] Normalized luciferase activity was determined in triplicates. […]
(§2) Investigators have reported that the Th2 and Th17 immune responses are compromised in PKCθ^−/− mice, whereas the Th1 response remains relatively intact (Marsland, B. J. et al. J Exp Med 200, 181-189 (2004); Salek-Ardakani, S. et al. J Immunol 173, 6440-6447 (2004); Salek-Ardakani, S., et al. J Immunol 175, 7635-7641 (2005)). Therefore, ectopic expression of V3 was analyzed for inhibition of Th differentiation. […]

Assay [2] concerns Naïve CD4+ T cells from B6 mice, Th9 cells. As to the kind of experiment: In vitro Th9 differentiation of retrovirally transduced CD4+ T cells. Type of assay: cell-based, mouse. To be noted: Th9-polarizing conditions (IL-4+TGFβ), IL-9-producing cells. The method, then: Naïve CD4^+ T cells from B6 mice stimulated with anti-CD3 plus anti-CD28 mAbs and differentiated in vitro under Th9-polarizing conditions (IL-4+TGFβ) were retrovirally transduced with empty pMIG vector, or with the indicated PKCθ V3 vectors. Transduced (GFP+) cells were sorted and IL-9-producing cells were analyzed by intracellular staining 8 h after restimulation. Cumulative data showing percentage of cytokine-producing. V3-4PA refers to mutation of 4 Pro residues in the Pro-rich motif to Ala and V3-DPR refers to deletion of the Pro-rich motif (ARPPCLPTP).
Th9 cells have been reported to play an important role in promoting allergic diseases such as asthma (J. Asthma 48:115, 2011; Curr. Opin. Immunol. 24:1, 2012. These findings indicate that allergic disease such as asthma can be treated in accordance with the invention.

Assay [3] concerns B6 CD4+ T cells, Th2 differentiation. Nature of the assay: In vitro Th2 differentiation of retrovirally transduced CD4+ T cells. The assay is classed as cell-based, mouse. To be noted: ectopic expression, Th2 differentiation conditions. The method, then:
as §1, §2

T1 sequence (P31041 20-218): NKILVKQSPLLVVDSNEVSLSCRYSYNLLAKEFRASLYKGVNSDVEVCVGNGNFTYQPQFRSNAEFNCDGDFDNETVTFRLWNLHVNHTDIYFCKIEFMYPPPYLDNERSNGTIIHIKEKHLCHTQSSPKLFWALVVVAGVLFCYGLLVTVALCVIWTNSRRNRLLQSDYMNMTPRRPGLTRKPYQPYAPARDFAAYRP
T1 sequence (P06240 2-509 partner): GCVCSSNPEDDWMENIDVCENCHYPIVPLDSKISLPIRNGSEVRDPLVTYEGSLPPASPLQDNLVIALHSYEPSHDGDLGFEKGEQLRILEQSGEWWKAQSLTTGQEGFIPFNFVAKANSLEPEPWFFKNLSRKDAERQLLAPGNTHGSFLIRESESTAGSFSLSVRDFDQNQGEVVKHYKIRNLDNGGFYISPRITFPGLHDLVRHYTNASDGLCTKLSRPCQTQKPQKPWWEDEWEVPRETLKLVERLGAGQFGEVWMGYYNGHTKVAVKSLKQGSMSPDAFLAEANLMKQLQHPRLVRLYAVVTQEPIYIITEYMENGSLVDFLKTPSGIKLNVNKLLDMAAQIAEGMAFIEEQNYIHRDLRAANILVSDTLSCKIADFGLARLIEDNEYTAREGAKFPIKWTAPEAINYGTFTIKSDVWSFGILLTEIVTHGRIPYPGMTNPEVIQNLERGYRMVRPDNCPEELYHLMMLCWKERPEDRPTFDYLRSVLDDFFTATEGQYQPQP

B1: V3 domain: amino acid 282-379 of human PKCθ with N-terminal Myc tag, expressed from pMIG retroviral vector (protein)
chain: GINQKLMAEALAMIESTQQARCLRDTEQIFREGPVEIGLPCSIKNEARPPCLPTPGKREPQGISWESPLDEVDKMCHLPEPELNKERPSLQIKLKIED
modifications: left off: small tags and cut ends
notes: amino acid 282-379 of human PKCθ with N-terminal Myc tag, expressed from pMIG retroviral vector
Regarding B1, the “coimmunoprecipitation with CD28” value with CD28 is “coimmunoprecipitated with CD28”. In assay [1], the “inhibition of Th17 differentiation” value is about 75%. The “effect on differentiation of Th9 cells” value in assay [2] is “interferes”. The “inhibition of Th2 differentiation” value in assay [3] is about 75%.
